Test results: patent publication US20090298196A1 (published 2009)
Values belong to the binder of their own block, whether it stands above or below them. Ends that are not written are not given here.

How the values were obtained:
[1] = molecular target: T1, peptide of sequence no. 2 (GPPGPQG, amino acid nos. 769 to 775 of human type 2 collagen) (human, also: immunogen form had an N-terminal cysteine added); assay: characterisation of the antibody (peptide immunisation and DELFIA screening)
T1 peptide: GPPGPQG
Experimental: (§1) The screening was done using the time-resolved fluorescence immunoassay (DELFIA, Amersham, registered trademark) described below. 50 μl measurement buffer solution (50 mM tris hydrochloric acid buffer solution (pH 7.5) containing 150 mM NaCl, 0.01% Tween80, 0.5% BSA and 0.05% NaN₃), 50 μl culture supernatant and 50 μl labeled antigen (measurement buffer solution containing 20 ng/ml biotin-labeled target antigen peptide and 100 ng/ml europium-labeled streptoavidine (manufactured by Perkin-Elmer Life Science)) were consecutively added to microtiter plates (manufactured by Sumitomo Bakelite) with solidified anti-mouse IgG antibodies (manufactured by Shibayagi), and a reaction was conducted at 4° C. for 16 hours. After washing the plates twice using 200 μl washing solution (150 mM NaCl, 0.02% NaN₃ and 0.01% Tween20), 150 μl enhancement solution (manufactured by Perkin-Elmer Life Science) were added, and the time-resolved fluorescence was measured using 1420ARVOsx Multilabel Counter (manufactured by Perkin-Elmer Life Science). One well with high reactivity was selected by means of this screening, cloning was repeated twice using the limiting dilution method, and the presence of antibody-producing hybridoma TAG-6G4 was established. […]

[2] = molecular target: T2, peptide of sequence no. 1 (GEPGDDAPS, amino acid nos. 757 to 765 of human type 2 collagen) (human, also: biotin-labeled in DELFIA screening, immunogen form had a C-terminal cysteine added); assay: as above
T2 construct: also called biotin-labeled target antigen peptide
T2 peptide: GEPGDDAPS
Experimental: as §1

binding result [1]: binds
B1: 2E6 antibody (monoclonal antibody produced by hybridoma TAG-2E6) (antibody, V domains shown)
VH: QVTLKESGPGILQPSQTLSLTCSFSGFSLSTYGMGVGWIRQPSGKGLEWLAHIWWNDNKYYNTTLKSRLTISKDTSNKQVFLKIASVDTADTATYYCARIERWDPWFAYWGQGTLVTVSA
VL: DVVMTQTPLSLPVSLGDQASISCRSSQSLVYSNGNTYFHWYLQKPGQSPKLLIYKVSNRFSGVPDRFSGSGSGTDFTLKISRVEAEDLGVYFCSQSTHVPLTFGAGTKLELKR
notes: Mouse IgG2b(k), 150 kDa, H chain 50 kDa and L chain 27 kDa; It was labeled with XL665 for the HTRF assay and immobilised on a carrier column for purification; also called 2E6 antibodies; XL665-labeled 2E6 antibodies

binding result [2]: binds
B2: 6G4 antibody (monoclonal antibody produced by hybridoma TAG-6G4) (antibody, mouse IgG1, V domains shown)
VH: EVQLVESGGSLVQPGGSLKLSCAASGFTFNNYGMSWVRQIPDKRLELVATITGNGHSTYYPVSVRGRFTISRDNAKNTLYLQMSSLKSEDTAMYYCVRGYSNFAFWGQGTTLTVSS
VL: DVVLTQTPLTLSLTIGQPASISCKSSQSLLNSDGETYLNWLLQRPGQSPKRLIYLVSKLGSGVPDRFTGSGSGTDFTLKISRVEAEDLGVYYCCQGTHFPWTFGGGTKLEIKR
notes: Mouse IgG1(k), 150 kDa, H chain 50 kDa and L chain 27 kDa; It was labeled with europium cryptate for the HTRF assay; also called 6G4 antibodies; cryptate-labeled 6G4 antibodies
